# Laboratory results published in paper PMC314469, “Protein Interaction Networks by Proteome Peptide Scanning” (PLoS Biology, 2004).
# T1: Boi2 SH3 (BOI2_YEAST), P39969
# T1 chain: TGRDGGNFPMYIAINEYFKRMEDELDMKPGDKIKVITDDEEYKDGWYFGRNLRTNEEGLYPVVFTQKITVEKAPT
# T2: Rvs167 SH3 (RV167_YEAST), P39743
# T2 chain: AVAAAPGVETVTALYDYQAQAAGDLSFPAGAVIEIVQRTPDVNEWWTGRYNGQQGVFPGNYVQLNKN
# T3: Boi1 SH3 (BOI1_YEAST), P38041
# T3 chain: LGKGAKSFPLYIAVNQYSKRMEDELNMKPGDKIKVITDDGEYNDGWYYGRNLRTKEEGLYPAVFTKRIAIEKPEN
# T4: Myo5 SH3 (MYO5_YEAST), Q04439
# T4 chain: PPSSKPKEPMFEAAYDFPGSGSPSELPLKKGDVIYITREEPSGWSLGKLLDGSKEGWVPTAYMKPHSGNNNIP
# T5: Yhr016c SH3 (YSC84_YEAST), P32793
# T5 chain: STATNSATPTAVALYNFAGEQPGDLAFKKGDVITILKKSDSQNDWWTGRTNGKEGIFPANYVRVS
# T6: Yfr024 SH3 (LSB3_YEAST), P43603
# T6 chain: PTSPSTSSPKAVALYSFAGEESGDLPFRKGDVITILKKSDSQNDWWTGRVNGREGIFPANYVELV
# Columns and labels:
# Experiment in all cases: SPOT array
# [1] = molecular target: T1, Boi2 SH3 (BOI2_YEAST), P39969
# [2] = molecular target: T2, Rvs167 SH3 (RV167_YEAST), P39743
# [3] = molecular target: T3, Boi1 SH3 (BOI1_YEAST), P38041
# [4] = molecular target: T4, Myo5 SH3 (MYO5_YEAST), Q04439
# [5] = molecular target: Sho1 SH3 (SHO1_YEAST), P40073
# [6] = molecular target: T5, Yhr016c SH3 (YSC84_YEAST), P32793
# [7] = molecular target: T6, Yfr024 SH3 (LSB3_YEAST), P43603
# Sequence of Sho1 SH3 (SHO1_YEAST), P40073 (P40073 295-366): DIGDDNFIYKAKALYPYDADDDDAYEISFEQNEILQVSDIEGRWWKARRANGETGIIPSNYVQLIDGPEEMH
Binder,"normalised SPOT signal, Boehringer light units (BLU); mean over the file's lines of this peptide [1]","normalised SPOT signal, Boehringer light units (BLU); mean over the file's lines of this peptide [2]","normalised SPOT signal, Boehringer light units (BLU); mean over the file's lines of this peptide [3]","normalised SPOT signal, Boehringer light units (BLU); mean over the file's lines of this peptide [4]","normalised SPOT signal, Boehringer light units (BLU); mean over the file's lines of this peptide [5]","normalised SPOT signal, Boehringer light units (BLU); mean over the file's lines of this peptide [6]","normalised SPOT signal, Boehringer light units (BLU); mean over the file's lines of this peptide [7]"
LQNAKNDPLPPVIE [YDL077C 56-69],21.8,47,120,58.8,0.2,37.2,10.7
LPKLKSNPSVPHLH [YBR218C 505-518],20.5,52.3,843,193,114,5.2,71.1
LPFPRKNPKLPENT [YHR099W 3263-3276],38.3,40.2,289,147,149,44.2,322
LQQRRYYPIFPGSI [YBL035C 565-578],472,91,6230,279,38.8,44.5,474

# Further lines, results first:
"normalised SPOT signal, Boehringer light units (BLU); mean over the file's lines of this peptide [1]","normalised SPOT signal, Boehringer light units (BLU); mean over the file's lines of this peptide [2]","normalised SPOT signal, Boehringer light units (BLU); mean over the file's lines of this peptide [3]","normalised SPOT signal, Boehringer light units (BLU); mean over the file's lines of this peptide [4]","normalised SPOT signal, Boehringer light units (BLU); mean over the file's lines of this peptide [5]","normalised SPOT signal, Boehringer light units (BLU); mean over the file's lines of this peptide [6]","normalised SPOT signal, Boehringer light units (BLU); mean over the file's lines of this peptide [7]",Binder
99.3,208,451,318,63.3,80.3,73.4,LQYHKKNPYSPLFS [YPL020C 12-25]
3.7,87.3,3930,77900,76.3,4270,16600,LPLPKLRPPRPTFA [YKL097C 62-75]
27.1,19.3,31.9,122,32.8,21,163,LPLSRVQPVQPSQT [YNL007C 295-308]
